Values quoted from earlier work as cited in paper PMC9775385.

Target: Nter-BsRNaseY N-terminal domain (Bacillus subtilis) (UniProt O31774)

Kd: 1.3 µM
Substance: Nter-BsRNaseY N-terminal domain (from UniProt O31774)
